# Test results from patent publication US20130089566A1.
# Target: polypeptide B9-23 composed of the ninth to twenty-third amino acid residues of the amino terminal on B chain of human insulin (human)
row,Substance,"T cell proliferation (CFSE staining, flow cytometry)"
1,spleen T cells of Balb/c mice of the B9-23 immune group (cells without a defined receptor),8.94%
2,spleen T cells of Balb/c mice of the pcDB9-23 and B9-23 coimmune group (cells without a defined receptor),0.08%
3,spleen T cells of Balb/c mice of the pcDB9-23 immune group (cells without a defined receptor),22.3%
